Here are results for 5 proteins from paper PMC4811591, “Role of the Substrate Specificity-Defining Residues of Human SIRT5 in Modulating the Structural Stability and Inhibitory Features of the Enzyme” (PLoS ONE, 2016).

Common to all, as to format: biochemical, human
Substrate in data set [1]: NC(=O)c1ccc[n+]([C@@H]2O[C@H](COP(=O)([O-])OP(=O)(O)OC[C@H]3O[C@@H](n4cnc5c(N)ncnc54)[C@H](O)[C@@H]3O)[C@@H](O)[C@H]2O)c1
Kind of data set: SIRT1 deacetylation reaction, trypsin coupled assay with Fluor-de-lys. Conditions: other: deacetylation, acetyl substrate; pH 8.0; 25.0 °C.

Substrate in data set [2]: NC(=O)c1ccc[n+]([C@@H]2O[C@H](COP(=O)([O-])OP(=O)(O)OC[C@H]3O[C@@H](n4cnc5c(N)ncnc54)[C@H](O)[C@@H]3O)[C@@H](O)[C@H]2O)c1
Nature of the data set: SIRT5 wild type desuccinylation reaction, trypsin coupled fluorescence assay with Ac-SucLys-AMC. Particulars: other: desuccinylation, succinyl substrate, 25°C, pH 8.0.

Substrate in data set [3]: NC(=O)c1ccc[n+]([C@@H]2O[C@H](COP(=O)([O-])OP(=O)(O)OC[C@H]3O[C@@H](n4cnc5c(N)ncnc54)[C@H](O)[C@@H]3O)[C@@H](O)[C@H]2O)c1
Nature of the data set: SIRT5 R105I deacetylation reaction, trypsin coupled assay with Fluor-de-lys. Particulars: other: deacetylation, acetyl substrate; pH 8.0; 25.0 °C.

Substrate in data set [4]: NC(=O)c1ccc[n+]([C@@H]2O[C@H](COP(=O)([O-])OP(=O)(O)OC[C@H]3O[C@@H](n4cnc5c(N)ncnc54)[C@H](O)[C@@H]3O)[C@@H](O)[C@H]2O)c1
Kind of data set: SIRT5 Y102A deacetylation reaction, trypsin coupled assay with Fluor-de-lys. Particulars: other: deacetylation, acetyl substrate; pH 8.0; 25.0 °C.

Substrate in data set [5]: NC(=O)c1ccc[n+]([C@@H]2O[C@H](COP(=O)([O-])OP(=O)(O)OC[C@H]3O[C@@H](n4cnc5c(N)ncnc54)[C@H](O)[C@@H]3O)[C@@H](O)[C@H]2O)c1
Nature of the data set: SIRT5 Y102A desuccinylation reaction, trypsin coupled assay with Ac-SucLys-AMC. Particulars: other: desuccinylation, succinyl substrate; pH 8.0; 25.0 °C.

Substrate in data set [6]: NC(=O)c1ccc[n+]([C@@H]2O[C@H](COP(=O)([O-])OP(=O)(O)OC[C@H]3O[C@@H](n4cnc5c(N)ncnc54)[C@H](O)[C@@H]3O)[C@@H](O)[C@H]2O)c1
Nature of the data set: SIRT5 Y102A/R105I deacetylation reaction, trypsin coupled assay with Fluor-de-lys. Conditions: other: deacetylation, acetyl substrate; pH 8.0; 25.0 °C.

B1: SIRT1 (Homo sapiens) (protein)
chain: MIGTDPRTILKDLLPETIPPPELDDMTLWQIVINILSEPPKRKKRKDINTIEDAVKLLQECKKIIVLTGAGVSVSCGIPDFRSRDGIYARLAVDFPDLPDPQAMFDIEYFRKDPRPFFKFAKEIYPGQFQPSLCHKFIALSDKEGKLLRNYTQNIDTLEQVAGIQRIIQCHGSFATASCLICKYKVDCEAVRGDIFNQVVPRCPRCPADEPLAIMKPEIVFFGENLPEQFHRAMKYDKDEVDLLIVIGSSLKVRPVALIPSSIPHEVPQILINREPLPHLHFDVELLGDCDVIINELCHRLGGEYAKLCCNPVKLSEITEKPPRTQKELAYLSELPPTPLHVSEDSSSPERTSPPDSSVIVTLLDQAAKSNDDLDVSESKGCMEEKPQEVQTSRNVESIAEQMENPDLKNVGSSTGEKNERTSVAGTVRKCWPNRVAKEQISRRLDGNQYLFLPPNRYIFHGAEVYSDSEDDVLSSSSCGSNSDSGTCQSPSLEEPMEDESEIEEFYNGLEDEPDVPERAGGAGFGTDGDDQEAINEAISVKQEVTDMNYPSNKS
notes: SIRT1 (193–747) and SIRT5 (51–301) were cloned into the pLIC-His expression vector; His tag (pLIC-His vector); made in house; host or cells: E. coli BL21(DE3) Star
On to B1, for which, in data set [1], the Michaelis constant (Km) (in general, the concentration of substrate that gives half-maximal velocity) was found to be 388 ± 73 µM; the kcat (usually the maximal rate divided by the concentration of active sites) turned out to be 0.000579 ± 9.1e-05 s⁻¹; the kcat/Km – broadly, the turnover number divided by the Michaelis constant – worked out at 1.63 M⁻¹ s⁻¹.

B2: SIRT5 wild type (Homo sapiens) (protein)
chain: KHIVIISGAGVSAESGVPTFRGAGGYWRKWQAQDLATPLAFAHNPSRVWEFYHYRREVMGSKEPNAGHRAIAECETRLGKQGRRVVVITQNIDELHRKAGTKNLLEIHGSLFKTRCTSCGVVAENYKSPICPALSGKGAPEPGTQDASIPVEKLPRCEEAGCGGLLRPHVVWFGENLDPAILEEVDRELAHCDLCLVVGTSSVVYPAAMFAPQVAARGVPVAEFNTETTPATNRFRFHFQGPCGTTLPEAL
notes: as for B1
For the protein B2, the Michaelis constant (Km) in data set [2] turned out to be 69 ± 9 µM.

B3: SIRT5 R105I (Homo sapiens; R105I) (protein)
chain: KHIVIISGAGVSAESGVPTFRGAGGYWRKWQAQDLATPLAFAHNPSRVWEFYHYIREVMGSKEPNAGHRAIAECETRLGKQGRRVVVITQNIDELHRKAGTKNLLEIHGSLFKTRCTSCGVVAENYKSPICPALSGKGAPEPGTQDASIPVEKLPRCEEAGCGGLLRPHVVWFGENLDPAILEEVDRELAHCDLCLVVGTSSVVYPAAMFAPQVAARGVPVAEFNTETTPATNRFRFHFQGPCGTTLPEAL
notes: as for B1
Consider B3, for which the Km in data set [3] amounted to 609 ± 120 µM.

B4: SIRT5 Y102A (Homo sapiens; Y102A) (protein)
chain: KHIVIISGAGVSAESGVPTFRGAGGYWRKWQAQDLATPLAFAHNPSRVWEFAHYRREVMGSKEPNAGHRAIAECETRLGKQGRRVVVITQNIDELHRKAGTKNLLEIHGSLFKTRCTSCGVVAENYKSPICPALSGKGAPEPGTQDASIPVEKLPRCEEAGCGGLLRPHVVWFGENLDPAILEEVDRELAHCDLCLVVGTSSVVYPAAMFAPQVAARGVPVAEFNTETTPATNRFRFHFQGPCGTTLPEAL
notes: as for B1
In the case of B4, the Km in data set [4] was determined as 1605 ± 321 µM; in data set [5], 321 ± 49 µM.

B5: SIRT5 Y102A/R105I (Homo sapiens; R105I/Y102A) (protein)
chain: KHIVIISGAGVSAESGVPTFRGAGGYWRKWQAQDLATPLAFAHNPSRVWEFAHYIREVMGSKEPNAGHRAIAECETRLGKQGRRVVVITQNIDELHRKAGTKNLLEIHGSLFKTRCTSCGVVAENYKSPICPALSGKGAPEPGTQDASIPVEKLPRCEEAGCGGLLRPHVVWFGENLDPAILEEVDRELAHCDLCLVVGTSSVVYPAAMFAPQVAARGVPVAEFNTETTPATNRFRFHFQGPCGTTLPEAL
notes: as for B1
With B5, the Km in data set [6] is 1194 ± 667 µM.
